According to US20100150906A1 (AC IMMUNE S A, published 2010):

How the values were obtained:
[1] = molecular target: T1, Amyloid Beta (antigen of the Amyloid Beta ELISA) (UniProt P05067 672-713, limits assumed); assay: Amyloid Beta ELISA, conditioned medium from transient transfection
[2] = molecular target: T1, Amyloid Beta (antigen of the Amyloid …); assay: Amyloid Beta ELISA, purified antibodies
amyloid beta 1-42 fibers = molecular target: T2, amyloid beta 1-42 fibers (UniProt P05067 672-713); assay: SPR (BIACORE), Aβ1-42 fibers immobilized on CM5 chip, antibody 0.05-1.0 µM
T2 construct: domain: amyloid beta 1-42; Many copies per fiber; also called Aβ1-42 fibers; fibrillar Aβ1-42
Procedure: (§1) BIACORE® technology utilizes changes in the refractive index at the surface layer upon binding of the antibody to the antigen immobilized on the layer. Binding is detected by surface plasmon resonance (SPR) of laser light refracting from the surface. Analysis of the signal kinetics on rate and off rate allows the discrimination between non-specific and specific interaction. The concentration of antibody used was in the range of 0.05 μM to 1.0 μM.

[3] = molecular target: T3, amyloid beta 1-42 monomers (UniProt P05067 672-713); assay: SPR (BIACORE), Aβ1-42 monomers immobilized on CM5 chip, antibody 0.05-1.0 µM
T3 construct: domain: amyloid beta 1-42; also called Aβ1-42 monomers; amyloid monomers
Procedure: as §1

T2 sequence (P05067 672-713 limits assumed): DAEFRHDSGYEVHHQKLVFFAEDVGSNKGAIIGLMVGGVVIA
T3 sequence (P05067 672-713 limits assumed): as above
T1 sequence (P05067 672-713 limits assumed): as above

| Binder | binding result [1] | fold reduction of binding activity against chimeric control antibody C2 ChVHAF/ChVK [2] [fold] | Kd (amyloid beta 1-42 fibers) [µM] | koff (amyloid beta 1-42 fibers) [s⁻¹] | kon (amyloid beta 1-42 fibers) [M⁻¹ s⁻¹] | Kd [3] [µM] | koff [3] [s⁻¹] | kon [3] [M⁻¹ s⁻¹] |
| --- | --- | --- | --- | --- | --- | --- | --- | --- |
| C2 HuVH AF version 3 combined with the chimeric C2 kappa chain (antibody, V domains shown, Transient expression in HEK293; also called C2HuVHAF3/ChVK) VH: EVQLVESGGGLVQPGGSLRLSCAASGFTFSSYGMSWVRQAPGKGLELVASINSNGGSTYYPDSVKGRFTISRDNAKNSLYLQMNSLRAEDTAVYYCARGDYWGQGTTVTVSS VL: DVVMTQTPLSLPVSLGDQASISCRSSQSLVYSNGDTYLHWYLQKPGQSPKLLIYKVSNRFSGVPDRFSGSGSGTDFTLKISRVEAEDLGVYFCSQSTHVPWTFGGGTKLEIK | no binding |  |  |  |  |  |  |  |
| humanized antibody C2 HuVH2/HuVK3 (antibody, human IgG4 S228P, kappa, V domains shown, also called C2HuVHAF2 with C2HuVK3) VH: EVQLVESGGGLVQPGGSLRLSCAASGFTFSSYGMSWVRQAPGKGLEWVASINSNGGSTYYPDSVKGRFTISRDNAKNSLYLQMNSLRAEDTAVYYCASGDYWGQGTTVTVSS VL: DIVMTQSPLSLPVTPGEPASISCRSSQSLVYSNGDTYLHWYLQKPGQSPKLLIYKVSNRFSGVPDRFSGSGSGTDFTLKISRVEAEDVGVYYCSQSTHVPWTFGQGTKVEIKR |  | ~2 |  |  |  |  |  |  |
| humanized antibody C2HuVH4/HuVK1 (antibody, human IgG4 S228P, kappa, V domains shown, also called H4K1; humanized H4K1) VH: EVQLVESGGGLVQPGGSLRLSCAASGFTFSSYGMSWVRQAPGKGLELVASINSNGGSTYYPDSVKGRFTISRDNAKNSLYLQMNSLRAEDTAVYYCASGDYWGQGTTVTVSS VL: DIVMTQSPLSLPVTPGEPASISCRSSQSLVYSNGDTYLHWYLQKPGQSPQLLIYKVSNRFSGVPDRFSGSGSGTDFTLKISRVEAEDVGVYYCSQSTHVPWTFGQGTKVEIKR |  |  | 0.0047 | 0.00023 | 49000 | 0.019 | 0.00095 | 50000 |
| chimeric antibody C2 ChVH AF/ChVK (antibody, human IgG4 S228P, kappa, V domains shown, also called C2 VH AF/C2 VK chimeric antibody; chimeric AF) VH: EVQLVESGGGLVQPGGSLKLSCAASGFTFSSYGMSWVRQTPDKRLELVASINSNGGSTYYPDSVKGRFTISRDNAKNTLYLQMSSLKSEDTAMYYCASGDYWGQGSTLTVSS VL: DVVMTQTPLSLPVSLGDQASISCRSSQSLVYSNGDTYLHWYLQKPGQSPKLLIYKVSNRFSGVPDRFSGSGSGTDFTLKISRVEAEDLGVYFCSQSTHVPWTFGGGTKLEIKR |  |  | 0.0065 | 0.00033 | 51000 | 0.02 | 0.00095 | 47000 |
